According to article PMC2724274 (Nucleic Acids Research, 2009):

Target: the molecule itself
Experiment: crystal structure

B1: CrgA (contact-regulated gene A), full-length, from Neisseria meningitidis (natural protein, UniProt Q9JXW7 1-299, looked up)
chain: MKTNSEELTVFVQVVESGSFSRAAEQLAMANSAVSRIVKRLEEKLGVNLLNRTTRQLSLTEEGAQYFRRAQRILQEMAAAETEMLAVHEIPQGVLSVDSAMPMVLHLLAPLAAKFNERYPHIRLSLVSSEGYINLIERKVDIALRAGELDDSGLRARHLFDSRFRVIASPEYLAKHGTPQSTEELAGHQCLGFTEPGSLNTWAVLDAQGNPYKISPHFTASSGEILRSLCLSGCGIVCLSDFLVDNDIAEGKLIPLLAEQTSDKTHPFNAVYYSDKAVNLRLRVFLDFLVEELGNNLCG
B1 was tested, and the “stoichiometry N” value was 8.
